In PMC11100465, “EFhd2 co-aggregates with monomeric and filamentous tau in vitro” (Frontiers in Neuroscience, 2024):

Biological target: T1, full-length human tau (hTau40) (human, UniProt P10636-8 1-441)
T1 construct: plasmid PT7CHT40; The same construct was used as monomer (no inducer) and as filaments or oligomers induced with 75 uM arachidonic acid; No tag removal is described; also called hTau40^m (incubated without inducer, monomeric); hTau40^ARA (incubated with arachidonic acid, filaments and oligomers); source: E. coli BL21, purified (boiled lysate, HIS-select Nickel resin)
Assay: ELISA; nondenaturing sandwich ELISA; Tau13 capture antibody, anti-EFhd2 detection antibody; 2 uM hEFhd2 and 2 uM hTau40 co-incubated overnight at room temperature without arachidonic acid (hTau40^m/hEFhd2), then diluted in 1X PBS
Settings: both partners purified

T1 sequence (P10636 other isoform, or with tags, fused parts or gaps): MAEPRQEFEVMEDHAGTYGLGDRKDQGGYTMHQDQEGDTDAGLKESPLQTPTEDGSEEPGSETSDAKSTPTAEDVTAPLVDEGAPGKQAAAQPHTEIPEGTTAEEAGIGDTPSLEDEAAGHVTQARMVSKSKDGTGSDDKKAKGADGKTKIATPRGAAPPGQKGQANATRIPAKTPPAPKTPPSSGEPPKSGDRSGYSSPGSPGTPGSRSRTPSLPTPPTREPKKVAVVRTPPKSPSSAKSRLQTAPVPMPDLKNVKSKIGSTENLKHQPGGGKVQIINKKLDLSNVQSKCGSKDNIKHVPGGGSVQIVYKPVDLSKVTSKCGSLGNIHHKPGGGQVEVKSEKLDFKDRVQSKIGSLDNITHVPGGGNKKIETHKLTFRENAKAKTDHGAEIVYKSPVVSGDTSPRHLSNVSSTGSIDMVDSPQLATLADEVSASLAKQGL

binding result: binds
B1: recombinant human EFhd2 (natural protein, UniProt Q96C19 1-240, looked up)
chain: MATDELATKLSRRLQMEGEGGGETPEQPGLNGAAAAAAGAPDEAAEALGSADCELSAKLLRRADLNQGIGEPQSPSRRVFNPYTEFKEFSRKQIKDMEKMFKQYDAGRDGFIDLMELKLMMEKLGAPQTHLGLKNMIKEVDEDFDSKLSFREFLLIFRKAAAGELQEDSGLCVLARLSEIDVSSEGVKGAKSFFEAKVQAINVSSRFEEEIKAEQEERKKQAEEMKQRKAAFKELQSTFK
notes: wild type human EFhd2; No tag removal is described; also called hEFhd2; EF-hand domain 2 protein; source: E. coli BL21 (DE3), purified (HIS-select Nickel resin)
